The results in this text go back to patent publication US20220372112A1 (KEYMED BIOSCIENCES, published 2022).

Residue numbers refer to the chain shown, from its start.

T1: human Claudin 18.2 (human, UniProt P56856-2 1-261)
T1 construct: whole, on cells
T1 sequence (looked up): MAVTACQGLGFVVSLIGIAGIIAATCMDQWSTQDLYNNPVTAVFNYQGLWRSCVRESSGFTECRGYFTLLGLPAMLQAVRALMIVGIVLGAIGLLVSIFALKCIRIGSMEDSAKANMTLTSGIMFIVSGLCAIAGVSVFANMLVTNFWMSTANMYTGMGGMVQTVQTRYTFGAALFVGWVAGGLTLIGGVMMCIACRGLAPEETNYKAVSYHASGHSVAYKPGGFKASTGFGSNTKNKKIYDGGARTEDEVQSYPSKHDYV

T2: human Claudin 18.1 (human, UniProt P56856 1-261)
T2 construct: whole, on cells
T2 sequence (looked up): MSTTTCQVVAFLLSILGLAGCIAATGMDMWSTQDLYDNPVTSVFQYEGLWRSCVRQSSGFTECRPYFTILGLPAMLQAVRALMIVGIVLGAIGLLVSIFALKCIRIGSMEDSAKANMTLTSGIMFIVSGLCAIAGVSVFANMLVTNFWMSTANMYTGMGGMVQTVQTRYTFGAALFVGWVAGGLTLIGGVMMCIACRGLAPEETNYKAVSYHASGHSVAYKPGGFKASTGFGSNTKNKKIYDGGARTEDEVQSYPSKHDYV

B1: h18A9.v24 (antibody, V domains shown)
VH: QVQLVQSGAEVKKPGSSVKVSCKASGYTFTNYLIDWVRQAPGQGLEWMGGINPGSGDTVYNEKFQGRVTLTADKSSMTAYMELSSLRSEDTAVYFCARRVRGNSFDSWGQGTLVTVSS
VL: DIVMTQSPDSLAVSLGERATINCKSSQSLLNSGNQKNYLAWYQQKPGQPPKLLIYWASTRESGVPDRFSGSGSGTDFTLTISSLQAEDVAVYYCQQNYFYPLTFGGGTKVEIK
notes: Humanized; also called 18A9VLv2 + 18A9VHv4
B2: h18A9.v25 (antibody, V domains shown)
VH: B1 VH with A24P, L70I, K74E, S76T, M77S
VL: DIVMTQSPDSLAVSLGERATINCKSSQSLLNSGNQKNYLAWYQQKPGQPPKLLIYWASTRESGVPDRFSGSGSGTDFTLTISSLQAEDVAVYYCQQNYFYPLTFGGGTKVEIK
notes: Humanized; also called 18A9VLv2 + 18A9VHv5
B3: h18A9.v26 (antibody, V domains shown)
VH: B1 VH with S16A, A24P, T28A, M77S
VL: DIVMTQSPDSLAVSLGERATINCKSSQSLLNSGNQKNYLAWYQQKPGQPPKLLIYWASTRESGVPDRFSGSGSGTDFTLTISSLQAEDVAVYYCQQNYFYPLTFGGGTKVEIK
notes: Humanized; also called 18A9VLv2 + 18A9VHv6
B4: h18A9.v27 (antibody, V domains shown)
VH: B1 VH with S16A, A24P, K74T, S76T, M77S, A79V
VL: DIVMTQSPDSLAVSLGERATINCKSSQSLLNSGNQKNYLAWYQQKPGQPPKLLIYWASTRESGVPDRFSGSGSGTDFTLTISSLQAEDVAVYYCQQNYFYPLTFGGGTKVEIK
notes: Humanized; also called 18A9VLv2 + 18A9VHv7
B5: 18D10.V13 (antibody, V domains shown)
VH: QVQLQESGPGLVKPSETLSLTCTVSGGSISSNYAWNWIRQPPGKGLEWIGYINYSGNTNYNPSLKSRVTISRDTSKNQFSLKLSSVTAADTAVYYCATSYYGNSFIYWGQGTLVTVSS
VL: DIVMTQSPDSLAVSLGERATINCKSSQSLLNSGNQKNYLTWYQQKPGQPPKLLIYWASTRESGVPDRFSGSGSGTDFTLTISSLQAEDVAVYYCQNAYSFPWTFGQGTKVEIK
notes: Humanized; also called 18D10VLv1 + 18D10VHv3
B6: 18D10.V23 (antibody, V domains shown)
VH: B5 VH
VL: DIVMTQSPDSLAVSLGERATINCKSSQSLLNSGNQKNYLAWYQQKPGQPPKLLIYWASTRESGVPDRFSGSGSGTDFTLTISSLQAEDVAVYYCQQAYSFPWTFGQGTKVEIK
notes: Humanized; also called 18D10VLv2 + 18D10VHv3
B7: 18D10.V24 (antibody, V domains shown)
VH: B5 VH with N57Y
VL: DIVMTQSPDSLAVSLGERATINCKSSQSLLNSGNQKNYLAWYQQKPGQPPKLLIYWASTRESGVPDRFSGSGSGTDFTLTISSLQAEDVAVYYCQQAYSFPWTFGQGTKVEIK
notes: Humanized; also called 18D10VLv2 + 18D10VHv4
B8: 18D10.V26 (antibody, V domains shown)
VH: B5 VH with N53Y
VL: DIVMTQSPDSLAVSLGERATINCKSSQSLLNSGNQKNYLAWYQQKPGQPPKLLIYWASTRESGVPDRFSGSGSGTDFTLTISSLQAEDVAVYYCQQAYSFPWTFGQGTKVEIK
notes: Humanized; also called 18D10VLv2 + 18D10VHv6
B9: 18D10.V22 (antibody, V domains shown)
VH: B5 VH with I49M, V68I
VL: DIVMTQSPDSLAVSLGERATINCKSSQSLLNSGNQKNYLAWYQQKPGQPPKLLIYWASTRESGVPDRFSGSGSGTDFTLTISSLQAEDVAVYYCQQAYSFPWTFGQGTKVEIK
notes: Humanized; also called 18D10VLv2 + 18D10VHv2
B10: 18D10.V14 (antibody, V domains shown)
VH: B5 VH with N57Y
VL: B5 VL
notes: Humanized; also called 18D10VLv1 + 18D10VHv4
B11: 18D10.V15 (antibody, V domains shown)
VH: B5 VH with N59A
VL: B5 VL
notes: Humanized; also called 18D10VLv1 + 18D10VHv5
B12: 18D10.V25 (antibody, V domains shown)
VH: B5 VH with N59A
VL: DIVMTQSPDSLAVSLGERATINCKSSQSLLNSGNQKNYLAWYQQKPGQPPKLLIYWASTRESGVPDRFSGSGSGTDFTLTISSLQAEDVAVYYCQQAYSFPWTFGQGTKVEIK
notes: Humanized; also called 18D10VLv2 + 18D10VHv5
B13: 18D10.V16 (antibody, V domains shown)
VH: B5 VH with N53Y
VL: B5 VL
notes: Humanized; also called 18D10VLv1 + 18D10VHv6
B14: 18D10.V12 (antibody, V domains shown)
VH: B5 VH with I49M, V68I
VL: B5 VL
notes: Humanized; also called 18D10VLv1 + 18D10VHv2
B15: 18D10.V21 (antibody, V domains shown)
VH: B5 VH with G27Y, S30T
VL: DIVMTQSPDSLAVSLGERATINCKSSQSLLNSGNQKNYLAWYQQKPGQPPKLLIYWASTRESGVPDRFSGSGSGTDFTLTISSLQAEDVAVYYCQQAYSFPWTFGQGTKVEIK
notes: Humanized; also called 18D10VLv2 + 18D10VHv1
B16: 18D10.V11 (antibody, V domains shown)
VH: B5 VH with G27Y, S30T
VL: B5 VL
notes: Humanized; also called 18D10VLv1 + 18D10VHv1
B17: 9C9 (antibody, V domains shown)
VH: EVQLKESGPGLVAPSQSLSITCTVSGFSLTNYGVSWIRQPPGKGLEWLGAIWAGGNTNYNSALMSRLSIRKDNSKSQVFLKMNSLQTDDTAMYYCARVGYGNSFANWGQGTLVTVSA
VL: DIVMTQSPSSLTVTAGEKVTLSCKSSQTLLNSGNQKNYLTWYQQKPGQPPKLLIYWASTRESGVPDRFTGSGSGTDFTLTISSVQAEDLAVYYCQNNYFYPLTFGAGTRLEIK
notes: also called Clone 9C9
B18: 19B2 (antibody, V domains shown)
VH: QVQLQQSGAELVKPGTSVKLSCKASGYSFTTYGLNWVRQRPKQGLEWIGWIFPGDGNVNYNEKFQGQATLTTDKSSSTAYMQLSRLTSEDSAVYFCARFYYGNSLNYWGQGTLVTVSA
VL: B17 VL with L21M, T28S, Q35L, K36R, Q48R, R109K
notes: also called Clone 19B2
B19: 25F5 (antibody, V domains shown)
VH: QVQLKQSGAELVKPGASLKLSCKASGYTFTTYGINWVRQRPEQGLEWIGWIFPGDATTMYNEKFKGTATLTADKSSSTAYMQLSGLTSEDSAVYFCARFYYGNSFVDWGQGTLVTVSA
VL: B17 VL with L21M, T28S, N97A, F99Y, R109K
notes: also called Clone 25F5
B20: 25A5 (antibody, V domains shown)
VH: B17 VH
VL: B17 VL with L21M, T28S, K36R, V64I, T69I, L89V, A90S, F99I, Y100F, R109K
notes: also called Clone 25A5
B21: 15D11 (antibody, V domains shown)
VH: B17 VH with E1Q, K5Q, E6Q
VL: B17 VL with L21M, T28S, Q35L, K36R, Q48R, R109K, I112L
notes: also called Clone 15D11
B22: 9D12 (antibody, V domains shown)
VH: EVQLQQSGREVVRPGTSVKVSCKPSGYAFTNYLIDWVKQRPGQGLEWIGGINPGSGDTVYNERFKDKATLTADKSSSSANMQLSSLTSDDSAVYFCARRVRGNSFDSWGQGTLVTVSA
VL: B17 VL with E17Q, L21M, T28S, T75K, Y92F, R109K, I112L
notes: also called Clone 9D12
B23: 9A8 (antibody, V domains shown)
VH: B22 VH with E1Q, R63K, D66A, S77M, S78T
VL: B17 VL with V3Q, L21M, T28S, K36R, P46T, S82N, F99Y, R109K
notes: also called Clone 9A8
B24: 8C11 (antibody, V domains shown)
VH: QVQLQQSGAELVKPGASVKLSCKASGYTFTTFGINWVRQRPEQGLEWIGWIFPGDGSIKYNEKFKGKATLTTDKSSSTAYMQISSLTSEDSAVYFCARFYYGNSFVSWGQGTLVTVSA
VL: DIVMTQSPSSLAVTAGEKVTMTCKSSQSLLNSGNQKNYLTWYQQRPGQPPKLLLYWASTRESGVPDRFTGSGSGTDFALTITSVQAEDLAVYYCQNDYTYPFTFGSGTKLEIK
notes: also called Clone 8C11
B25: 18G5 (antibody, V domains shown)
VH: B22 VH with R63K, D66A, S77M, S78T, A79T
VL: DIVMTQSPSSLTVRAGEKVTMTCKSSQSLFNSGNQRNYLTWYQQKPGQPPKLLLYWATARESGVPDRFTGSGSGTDFTLSISSVQAEDLAVYYCQNVYFYPLTFGAGTKLEIK
notes: also called Clone 18G5

The target of the first assay is T1, human Claudin 18.2. As to the kind of experiment: flow cytometry (iQue) on cells, antibody from 100 nM in 5-fold steps; cell line not named in Example 5. The protocol:
The cells at logarithmic growth phase were taken, blocked with 3% BSA for 30 minutes, plated at 5×10⁴ cells/100 μL into a U-shaped 96-well plate, centrifuged at 1100 rpm for 3 minutes, the supernatant was discarded, the cells were gently patted and loosed, 50 μL of antibody diluted according to the series was added to each well (antibody concentration starts from 100 nM, 5 times dilution in 8 series), incubated at 4° C. for 1 hour. After the incubation, 140 μL of 0.5% BSA was added to each well to wash 3 times, AF 647 APC anti-human secondary antibody was added with 30 μL/well and incubated at 4° C. for 40 minutes. After the incubation, 140 μL of 0.5% BSA was added to each well to wash 3 times, and finally resuspended each well with 50 μL PBS for iQue (Intellicyt, USA) detection (shown in Table 2).
A general note: A flow cytometer gives signals particle by particle.
In general, EC50 refers to the midpoint of the concentration-response curve. Consider B1, for which it took 2.06 nM to reach a half-maximal effect (EC50).

The molecule B2 gave an EC50 of 0.964 nM.

B3 displayed an EC50 of 1.41 nM.

The molecule B4 showed an EC50 of 0.646 nM.

Regarding B5, the EC50 came to 0.912 nM.

Molecule B6 yielded an EC50 of 0.982 nM.

The molecule B7 gave an EC50 of 1.93 nM.

As to B8, the midpoint of the response, the EC50, lay at 1.87 nM.

Turning to B9, the 50% effective concentration (EC50) was determined as 1.9 nM.

With B10, the EC50 was determined as 1.74 nM.

B11 registered a concentration giving a half-maximal response (EC50) of 2.69 nM.

Consider B12, for which the midpoint of the response, the EC50, lay at 1.26 nM.

Take B13: the 50% effective concentration (EC50) was determined as 2.31 nM.

Take B14: a half-maximal response (EC50) required 1.68 nM.

For the molecule B15, it took 1.07 nM to reach a half-maximal effect (EC50).

On to B16, for which the EC50 is 1.13 nM.

In the next assay the target is T2, human Claudin 18.1. As to the kind of experiment: flow cytometry on HEK293-Claudin 18.1 cells, chimeric IgG1. How it is done:
(§1) The HEK293-Claudin 18.1 cells, HEK293-Claudin 18.2 cells and HEK293 cells at logarithmic growth phase were taken, after digesting, added at 5×10⁴ cells/100 μL to the U-shaped 96-well plate, centrifuged at 1100 rpm for 3 minutes, the supernatant was discarded, the cells were gently patted and loosed, 50 μL of antibody diluted according to the series was added to each well (antibody concentration starts from 100 nM, 5 times dilution in 8 series), and incubate at 4° C. for 1 hour. After the incubation, 140 μL 0.5% BSA was added to each well to wash 3 times, the secondary antibody AlexaFluro647 anti-human IgG (Jackson ImmunoResearch, catalog number: 109-606-170) was added with 30 μL/well, and incubated at 4° C. for 40 minutes. After the incubation, 140 μL 0.5% BSA was added to each well to wash 3 times, and finally resuspended each well with 50 μL PBS for flow cytometry (iQue Screener) detection.
Consider B17, for which the binding result is reported as “no binding (tested: 100 nM (highest concentration tested))”.

Regarding B18, the binding result is reported as “no binding (tested: 100 nM (highest concentration tested))”.

On to B19, for which the binding result is “no binding (tested: 100 nM (highest concentration tested))”.

As to B20, the binding result was “no binding (tested: 100 nM (highest concentration tested))”.

For B21, the binding result is “no binding (tested: 100 nM (highest concentration tested))”.

In the case of B22, the binding result is recorded as “no binding (tested: 100 nM (highest concentration tested))”.

With B23, the binding result is listed as “no binding (tested: 100 nM (highest concentration tested))”.

Take B24: the binding result is on record as “no binding (tested: 100 nM (highest concentration tested))”.

Regarding B25, the binding result is reported as “no binding (tested: 100 nM (highest concentration tested))”.

Another assay concerns the target T1, human Claudin 18.2. In words: flow cytometry (iQue) on HEK293-Claudin 18.2 cells, chimeric IgG1. The protocol:
as §1
B17: a half-maximal response (EC50) required 1.46 nM.

In turn, B18 gave a 50% effective concentration (EC50) of 0.2 nM.

In the case of B19, a half-maximal response (EC50) required 2.14 nM.

In turn, B20 had a concentration for a half-maximal effect (EC50) of 0.19 nM.

B21 registered a concentration for a half-maximal effect (EC50) of 0.21 nM.

On to B22, for which the half-maximal effective concentration (EC50) is 6.78 nM.

Turning to B23, the EC50 is 0.21 nM.

Molecule B24 had a half-maximal effective concentration (EC50) of 0.23 nM.

As for B25, the EC50 was 3.79 nM.
